Laboratory results published in CN116813769A (FUZHOU CREMAB PHARMACEUTICAL INC, dated 2023).
Values belong to the binder of their own block, whether it stands above or below them.

Legend:
[1] = biological target: T1, 人CD47胞外段-His tag重组蛋白 (SinoBiological 12283-H08H) (human, UniProt Q08722 19-139); assay: BLI (Octet K2), HIS1K sensor loaded with CD47-his tag, antibody in solution, 1:1 fit
T1 construct: extracellular domain; Bought reagent; Captured on HIS1K sensor; also called CD47-his tag蛋白

[2] = biological target: T2, 经生物素标记的CD47-hFc蛋白 (biotin-labelled CD47-hFc protein, expressed in house) (UniProt Q08722 19-141, biotin-labelled (site not stated)); assay: BLI (Octet K2), SA sensor loaded with biotinylated CD47-hFc, antibody in solution, 1:1 fit
T2 construct: Self-expressed; Captured on SA sensor
T2 sequence (Q08722 19-141): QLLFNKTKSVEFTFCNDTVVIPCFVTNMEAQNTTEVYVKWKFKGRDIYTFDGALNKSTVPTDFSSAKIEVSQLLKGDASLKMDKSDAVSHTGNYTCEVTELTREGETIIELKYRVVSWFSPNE

T1 sequence (Q08722 19-139 limits assumed): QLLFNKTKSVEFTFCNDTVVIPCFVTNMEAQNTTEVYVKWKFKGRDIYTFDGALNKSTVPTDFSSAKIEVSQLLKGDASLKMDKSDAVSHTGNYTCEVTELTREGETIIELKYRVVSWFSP

Kd [1]: 0.221 nM
Kd [2]: 0.192 nM
B1: 7DC2 (antibody, human IgG1, kappa, V domains shown)
VH: QVQLQQSGPELVKPGASVKMSCKASGYTFTNYFMHWVKQKPGQGLEWIGYINPYNDGTKYNEKFKGKATLTSDKSSSTAYMELSSLTSEDSAVYYCTKGGRYSMDYWGQGTTLTVSS
VL: DVVMTQTPLSLPVRLGDEVSISCRSSQTIVFTNGNTYLEWYLQKPGQSPKLLIYKVSNRFSGVPDRFSGSGSGTDFTLTISRVEAEDLGIYYCFQGSHVPYTFGGGTKLELKR
notes: Full-length chimeric antibody (mouse variable regions, human constant regions); also called 7DC2抗体

Kd [1]: 0.0202 nM
Kd [2]: 0.0276 nM
B2: 7DC4 (antibody, human IgG1, kappa, V domains shown)
VH: QVQLKQSGAELVQPGASVKLSCKASGYTFTNYYMYWLRQRPGQGLEWIGEINPSNGGTDFNEKFKSKATLTVDKSSSTAFMQLSSLTSDDSAVYYCARGGFTMDYWGQGTTVTVSS
VL: DVVMTQTPLSLPVSLGDQASISCRSSQSLVHSNGNTYLHWYLQKPGQSPKLLIYKVSNRFSGVPDRFSGSGSGTDFTLKISRVEAEDLGVYFCSQSTHVPLTFGAGTKLELKR
notes: Full-length chimeric antibody (mouse variable regions, human constant regions); also called 7DC4抗体
